Positions count from the first letter of the chain named. In names and notes the source's numbering stands.
What was measured:
[1] = tested on: Glycine max (93Y21) hairy root; experiment: Hairy root growth from transformed soybean cotyledons with or without 25 uM glyphosate; type: cell-based; conditions: constructs containing the UBQ10 promoter
[2] = substrate: C=C(OP(=O)(O)O)C(=O)O; experiment: EPSPS substrate saturation kinetics, WT-FS-E; type: biochemical, Zea mays; conditions: other: PEP varied; pH 7.0
Method: (§1) EPSPS activity was determined by quantifying the phosphate generated from the EPSPS reaction. Release of inorganic phosphate was coupled to reaction with 2-amino-6-mercapto-7-methylpurine ribonucleoside, catalyzed by purine-nucleoside phosphorylase (M R Webb, Proc. Natl. Acad. Sci. 89:4884-4887, 1992). The absorbance change that occurs was monitored at 360 nm, where the extinction is 11,200 M^−1 cm^−1, with a Spectramax plate reader (Molecular Devices). To determine kinetic parameters, the varied substrate was present at seven concentrations (the eighth being the blank, containing no substrate) ranging from 4 to 400 uM and the unvaried substrate present at saturation. Six microliters of 50-fold concentrated stock solutions of the varied substrate were placed in the wells of the 96-well assay plate and reactions were started with the addition of a mixture containing 25 mM Hepes, pH 7, 100 mM KCl, 0.3 mM 2-amino-6-mercapto-7-methylpurine ribonucleosde, 1 uM (1 unit/ml) purine-nucleoside phosphorylase (Sigma N8264) and 200 uM of the non-varied substrate. Reactions were monitored with a Spectramax plate reader. […] KI was then calculated from the following form of the Michaelis-Menten equation for competitive inhibition: KI=KM[I]/(KM app−KM) KM approximates the dissociation constant of the enzyme-substrate complex while kcat is the rate of conversion of substrate to product when the substrate concentration is saturating. kcat/KM is a widely accepted parameter for catalytic efficiency when substrate concentration is low (˜KM). […] The parameter kcat/KM×KI is used to quantify both catalytic efficiency and insensitivity and thus the overall fitness of the enzyme. […]
(§2) The vector DNA of the library was transformed into the BL21(DE3) Tuner AroA knockout strain and the cells were plated onto M9 medium containing 50 mM glyphosate. A small aliquot of the transformed cells was plated on LB, by which it was determined that 1.1×10^8 colony forming units, or 20% of the theoretical library size, were plated and screened. […]

[3] = substrate: C=C(OP(=O)(O)O)C(=O)O; experiment: EPSPS substrate saturation kinetics, WT-FS-B; type: biochemical, Zea mays; conditions: other: PEP varied; pH 7.0
Method: as §1, §2

[4] = substrate: C=C(OP(=O)(O)O)C(=O)O; experiment: EPSPS substrate saturation kinetics, WT-FS-E2; type: biochemical, Zea mays; conditions: other: PEP varied; pH 7.0
Method: EPSPS activity was determined by quantifying the phosphate generated from the EPSPS reaction. Release of inorganic phosphate was coupled to reaction with 2-amino-6-mercapto-7-methylpurine ribonucleoside, catalyzed by purine-nucleoside phosphorylase (M R Webb, Proc. Natl. Acad. Sci. 89:4884-4887, 1992). The absorbance change that occurs was monitored at 360 nm, where the extinction is 11,200 M^−1 cm^−1, with a Spectramax plate reader (Molecular Devices). To determine kinetic parameters, the varied substrate was present at seven concentrations (the eighth being the blank, containing no substrate) ranging from 4 to 400 uM and the unvaried substrate present at saturation. Six microliters of 50-fold concentrated stock solutions of the varied substrate were placed in the wells of the 96-well assay plate and reactions were started with the addition of a mixture containing 25 mM Hepes, pH 7, 100 mM KCl, 0.3 mM 2-amino-6-mercapto-7-methylpurine ribonucleosde, 1 uM (1 unit/ml) purine-nucleoside phosphorylase (Sigma N8264) and 200 uM of the non-varied substrate. Reactions were monitored with a Spectramax plate reader. […] KI was then calculated from the following form of the Michaelis-Menten equation for competitive inhibition: KI=KM[I]/(KM app−KM) KM approximates the dissociation constant of the enzyme-substrate complex while kcat is the rate of conversion of substrate to product when the substrate concentration is saturating. kcat/KM is a widely accepted parameter for catalytic efficiency when substrate concentration is low (˜KM). […] The parameter kcat/KM×KI is used to quantify both catalytic efficiency and insensitivity and thus the overall fitness of the enzyme.
as §2

[5] = substrate: C=C(OP(=O)(O)O)C(=O)O; experiment: purified protein, by the assay type; conditions: pH 7.0
[6] = substrate: C=C(OP(=O)(O)O)C(=O)O; experiment: EPSPS substrate saturation kinetics, WT-FS-D; type: biochemical, Zea mays; conditions: other: PEP varied; pH 7.0
Method: as §1, §2

sorghum EPSPS = experiment: EPSPS reaction rates at 200 uM PEP and S3P, and at 30 uM substrates with 1 mM glyphosate; type: biochemical, Sorghum halepense; conditions: Sor ha; for Reaction rate, 200 uM, no glyph: PEP and S3P both at 200 uM, no glyphosate; for Reaction rate, 30 uM, 1 mM glyph: substrates at 30 uM, glyphosate at 1 mM
Method: EPSPS activity was determined by quantifying the phosphate generated from the EPSPS reaction. Release of inorganic phosphate was coupled to reaction with 2-amino-6-mercapto-7-methylpurine ribonucleoside, catalyzed by purine-nucleoside phosphorylase (M R Webb, Proc. Natl. Acad. Sci. 89:4884-4887, 1992). The absorbance change that occurs was monitored at 360 nm, where the extinction is 11,200 M^−1 cm^−1, with a Spectramax plate reader (Molecular Devices). To determine kinetic parameters, the varied substrate was present at seven concentrations (the eighth being the blank, containing no substrate) ranging from 4 to 400 uM and the unvaried substrate present at saturation. Six microliters of 50-fold concentrated stock solutions of the varied substrate were placed in the wells of the 96-well assay plate and reactions were started with the addition of a mixture containing 25 mM Hepes, pH 7, 100 mM KCl, 0.3 mM 2-amino-6-mercapto-7-methylpurine ribonucleosde, 1 uM (1 unit/ml) purine-nucleoside phosphorylase (Sigma N8264) and 200 uM of the non-varied substrate. Reactions were monitored with a Spectramax plate reader. The Michaelis-Menten kinetics protocol of the Spectramax software was customized for the substrate concentrations used. The software returns values of KM and Vmax using the Lineweaver-Burke transformation of the Michaelis-Menten equation. To determine kcat, Vmax (uM/min) was divided by the enzyme concentration (uM). […] KI was then calculated from the following form of the Michaelis-Menten equation for competitive inhibition: KI=KM[I]/(KM app−KM) KM approximates the dissociation constant of the enzyme-substrate complex while kcat is the rate of conversion of substrate to product when the substrate concentration is saturating. kcat/KM is a widely accepted parameter for catalytic efficiency when substrate concentration is low (˜KM). […] The parameter kcat/KM×KI is used to quantify both catalytic efficiency and insensitivity and thus the overall fitness of the enzyme.
Likewise, the mutations present in maize EPSPS 123-C1 (See Table 8) were mapped onto the amino acid sequences of sorghum (SEQ ID NO:23) and the proteins were produced and purified as above.

[7] = other: substrate saturation, Zm-P107L
[8] = other: substrate saturation, Zm native
[9] = other: substrate saturation, Zm-G102A

B1: 868-H6: maize EPSPS with A2R, A4W, A72Q, K84R, L98C, G102A, I208L, T279A, E302S, T361S, E391G, D402G, A416G, V438R, T441Q (protein)
chain: MRGWEEIVLQPIKEISGTVKLPGSKSLSNRILLLAALSEGTTVVDNLLNSEDVHYMLGALRTLGLSVEADKQAKRAVVVGCGGRFPVEDAKEEVQLFCGNAATAMRPLTAAVTAAGGNATYVLDGVPRMRERPIGDLVVGLKQLGADVDCFLGTDCPPVRVNGIGGLPGGKVKLSGSISSQYLSALLMAAPLALGDVEIEIIDKLISLPYVEMTLRLMERFGVKAEHSDSWDRFYIKGGQKYKSPKNAYVEGDASSASYFLAGAAITGGTVTVEGCGTASLQGDVKFAEVLEMMGAKVTWTSTSVTVTGPPREPFGRKHLKAIDVNMNKMPDVAMTLAVVALFADGPTAIRDVASWRVKESERMVAIRTELTKLGASVEEGPDYCIITPPGKLNVTAIDTYGDHRMAMAFSLAACGEVPVTIRDPGCTRKTFPDYFDRLSQFVKN
modifications: maize clone 868-H6
notes: maize EPSPS with A2R, A4W, A72Q, K84R, L98C, G102A, I208L, T279A, E302S, T361S, E391G, D402G, A416G, V438R, T441Q
In the case of B1, the “hairy root growth in the presence of 25 uM glyphosate” value [1] is reported as “generated hairy roots”.

B2: 771-C2: maize EPSPS with A4W, H54M, L98C, G102A, K173R, I208L, K243E, E302S, T361S, E391P, D402G, A416G, V438R, S440R, T441Q, F442V (protein)
chain: B1 chain with R2A, H54M, Q72A, R84K, K173R, K243E, A279T, G391P, S440R, F442V
modifications: maize clone 771-C2
notes: maize EPSPS with A4W, H54M, L98C, G102A, K173R, I208L, K243E, E302S, T361S, E391P, D402G, A416G, V438R, S440R, T441Q, F442V
B2 was tested, and the “hairy root growth in the presence of 25 uM glyphosate” value [1] was “generated hairy roots”.

B3: Zea mays EPSPS variant WT-FS-E (102A 302S 391G 438R) (Zea mays; E301S/E390G/G101A/V437R) (protein)
chain: MAGAEEIVLQPIKEISGTVKLPGSKSLSNRILLLAALSEGTTVVDNLLNSEDVHYMLGALRTLGLSVEADKAAKRAVVVGCGGKFPVEDAKEEVQLFLGNAATAMRPLTAAVTAAGGNATYVLDGVPRMRERPIGDLVVGLKQLGADVDCFLGTDCPPVRVNGIGGLPGGKVKLSGSISSQYLSALLMAAPLALGDVEIEIIDKLISIPYVEMTLRLMERFGVKAEHSDSWDRFYIKGGQKYKSPKNAYVEGDASSASYFLAGAAITGGTVTVEGCGTTSLQGDVKFAEVLEMMGAKVTWTSTSVTVTGPPREPFGRKHLKAIDVNMNKMPDVAMTLAVVALFADGPTAIRDVASWRVKETERMVAIRTELTKLGASVEEGPDYCIITPPGKLNVTAIDTYDDHRMAMAFSLAACAEVPVTIRDPGCTRKTFPDYFDRLSTFVKN
For B3, the Km [2] was 165 µM, the kcat [2] was 6.63 s⁻¹ and the kcat/Km [2] was 2.41 min^−1uM^−1.

B4: Zea mays EPSPS variant WT-FS-B (103I 107S 278G 338S) (Zea mays; A337S/P106S/T102I/T277G) (protein)
chain: B3 chain with A102G, T103I, P107S, T278G, S302E, A338S, G391E, R438V
In the case of B4, the Km [3] is reported as 27.7 µM, the kcat [3] is reported as 1.62 s⁻¹ and the kcat/Km [3] is reported as 3.57 min^−1uM^−1.

B5: Zea mays EPSPS variant WT-FS-E2 (102A 302S 391G 438R I208L) (Zea mays; E301S/E390G/G101A/I207L/V437R) (protein)
chain: B3 chain with I208L
B5 gave a Km [4] of 87.7 µM, a kcat [4] of 9.93 s⁻¹ and a kcat/Km [4] of 6.80 min^−1uM^−1.

B6: Zea mays EPSPS variant P107L (Zea mays; P106L) (protein)
chain: B3 chain with A102G, P107L, S302E, G391E, R438V
In the case of B6, the Km ([5]; other: PEP varied) is reported as 67.1 µM, the Km [5, 7] is reported as 59.7 µM and the kcat [5, 7] is reported as 22.93 s⁻¹.

B7: Zea mays EPSPS, native, SEQ ID NO:2 (Zea mays) (protein)
chain: B3 chain with A102G, S302E, G391E, R438V
Work on B7 yielded a Km [5, 8] of 11.0 µM and a kcat [5, 8] of 17.27 s⁻¹.

B8: Zea mays EPSPS variant G102A (Zea mays; G101A) (protein)
chain: B3 chain with S302E, G391E, R438V
For B8, the Km ([5]; other: PEP varied) was 310 µM, the Km [5, 9] was 407 µM and the kcat [5, 9] was 14.3 s⁻¹.

B9: Zea mays EPSPS variant WT-FS-D (101S 107L 302S 338S) (Zea mays; A100S/A337S/E301S/P106L) (protein)
chain: B3 chain with A101S, A102G, P107L, A338S, G391E, R438V
Molecule B9 has a Km [6] of 20.5 µM, a kcat [6] of 30.9 s⁻¹ and a kcat/Km [6] of 92.3 min^−1uM^−1.

B10: Sor ha, native: native EPSPS from sorghum (Sorghum halepense) (protein)
chain: B3 chain with M1A, R61N, A72V, A102G, V161I, S302E, E313Q, G391E, R438V
modifications: Sorghum halapense
For B10, the “Reaction rate, 200 uM, no glyph” value (sorghum EPSPS) was 1376 and the “Reaction rate, 30 uM, 1 mM glyph” value (sorghum EPSPS) was −2.2.

B11: Sor ha C1 mutations: mutated version of the EPSPS sequence from sorghum that contains the 123-C1 mutations (protein)
chain: ARGWEEIVLQPIKEISGTVKLPGSKSLSNRILLLAALSEGTTVVDNLLNSEDVHYMLGALNTLGLSVEADKVAKRAVVVGCGGRFPVEDAKEEVQLFCGNAATAMRPLTAAVTAAGGNATYVLDGVPRMRERPIGDLVVGLKQLGADVDCFLGTDCPPVRINGIGGLPGGKVKLSGSISSQYLSALLMAAPLALGDVEIEIIDKLISLPYVEMTLRLMERFGVKAEHSDSWDRFYIKGGQKYESPKNAYVEGDASSASYFLAGAAITGGTVTVEGCGTTSLQGDVKFAEVLEMMGAKVTWTETSVTVTGPPRQPFGRKHLKAIDVNMNKMPDVAMTLAVVALFADGPTAIRDVASWRVKETERMVAIRTELTKLGASVEEGPDYCIITPPPKLNVTAIDTYGDHRMAMAFSLAACAEVPVTIRDPGCTRKTFPDYFDVLSTFVKN
modifications: Sorghum halapense H6T5X2 with C1 mutations
With B11 the “Reaction rate, 200 uM, no glyph” value (sorghum EPSPS) was 356 and the “Reaction rate, 30 uM, 1 mM glyph” value (sorghum EPSPS) was 60.0.

From patent US11549123B2, “Plant EPSP synthases and methods of use” (PIONEER HI-BRED INTERNATIONAL, INC., priority 2015, dated 2023)
